Results on 2 substances are retold here after paper PMC10229872.

For the assay, the target named is Programmed cell death-1 (human (endogenous in PBMCs)) (UniProt Q15116).
Sequence of UniProt Q15116 (Q15116 25-288): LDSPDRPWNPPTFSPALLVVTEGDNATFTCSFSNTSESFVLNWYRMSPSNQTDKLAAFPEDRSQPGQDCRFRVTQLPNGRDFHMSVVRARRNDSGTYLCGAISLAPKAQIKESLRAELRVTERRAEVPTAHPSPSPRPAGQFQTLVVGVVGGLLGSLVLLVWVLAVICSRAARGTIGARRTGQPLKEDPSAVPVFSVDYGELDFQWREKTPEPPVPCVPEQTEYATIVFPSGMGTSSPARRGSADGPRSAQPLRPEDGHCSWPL

Substance “soluble monomeric human PD-L1 (from UniProt Q9NZQ7 19-229) (domain or fragment)” displayed a reduction of intracellular IFN-gamma in PBMCs stimulated with anti-CD3/CD28 antibodies (FACS) of 55.3%, a reduction of intracellular IL-2 in PBMCs stimulated with anti-CD3/CD28 antibodies (FACS) of 32.5%, a reduction of intracellular IL-10 in PBMCs stimulated with anti-CD3/CD28 antibodies (FACS) of 48.5% and a reduction of intracellular TNF-alpha in PBMCs stimulated with anti-CD3/CD28 antibodies (FACS) of 47.3%.

In the case of “soluble recombinant Fc fusion protein of hPD-L1 (from UniProt Q9NZQ7 19-229)”, the increase of intracellular IL-2 in PBMCs stimulated with anti-CD3/CD28 antibodies (FACS) stood at 14.2% and the reduction of intracellular IFN-gamma in PBMCs stimulated with anti-CD3/CD28 antibodies (FACS) amounted to 15.1%.
